Reference: publication PMC6923396

Assays:
[1] = molecular target: p62-UBA K420Q (for NMR) (mouse) (UniProt Q64337); assay: NMR dilution series (1H-15N HSQC peak volumes of monomer and dimer); 15N-labeled p62-UBA diluted from 500 to 20 µM; 298 K, pH 6.0, 20 mM sodium acetate, 100 mM NaCl; dimer to monomers
[2] = molecular target: p62-UBA K435Q (for NMR) (mouse) (UniProt Q64337); assay: as above

Row | Substance | Kd [1] [µM] | Kd [2] [µM]
1 | p62-UBA K420Q (for NMR) (from UniProt Q64337-1 391-436) (domain or fragment) | 41.2 | 
2 | p62-UBA K435Q (for NMR) (from UniProt Q64337-1 391-437) (domain or fragment) |  | 15.5
